Like-named read-outs stand apart in the source and are kept apart here. Values belong to the molecule of their own block, whether it stands above or below them.
Assays:
[1] = target: ErbB2 on human breast cancer cells (MDA-MB-175, SK-BR-3) (human) (UniProt P04626); experiment: cell-based or functional assay
[2] = target: ErbB receptor(s) on MCF7 cells; experiment: cell-based or functional assay
[3] = target: ErbB receptor(s) on MCF7 cells; experiment: cell-based or functional assay; remark: listed apart in the source
[4] = target: T1, ErbB3-immunoadhesin (ErbB3-IgG fusion, L636 ErbB3-(TR)-DKTH224 VH) (human, UniProt P21860 20-643; P01857 104-330 = IgG part); experiment: competitive displacement of ^125I-HRGβ1(177-244) (0.23 nM) from ErbB3-IgG captured on goat-anti-human antibody coated wells
T1 construct: extracellular domain;domain: hinge domain of the immunoglobulin onward; Made in HEK-293 cells, purified on Protein A; also called ErbB3 immunoadhesins
T1 sequence (P21860 other isoform, or with tags, fused parts or gaps limits assumed): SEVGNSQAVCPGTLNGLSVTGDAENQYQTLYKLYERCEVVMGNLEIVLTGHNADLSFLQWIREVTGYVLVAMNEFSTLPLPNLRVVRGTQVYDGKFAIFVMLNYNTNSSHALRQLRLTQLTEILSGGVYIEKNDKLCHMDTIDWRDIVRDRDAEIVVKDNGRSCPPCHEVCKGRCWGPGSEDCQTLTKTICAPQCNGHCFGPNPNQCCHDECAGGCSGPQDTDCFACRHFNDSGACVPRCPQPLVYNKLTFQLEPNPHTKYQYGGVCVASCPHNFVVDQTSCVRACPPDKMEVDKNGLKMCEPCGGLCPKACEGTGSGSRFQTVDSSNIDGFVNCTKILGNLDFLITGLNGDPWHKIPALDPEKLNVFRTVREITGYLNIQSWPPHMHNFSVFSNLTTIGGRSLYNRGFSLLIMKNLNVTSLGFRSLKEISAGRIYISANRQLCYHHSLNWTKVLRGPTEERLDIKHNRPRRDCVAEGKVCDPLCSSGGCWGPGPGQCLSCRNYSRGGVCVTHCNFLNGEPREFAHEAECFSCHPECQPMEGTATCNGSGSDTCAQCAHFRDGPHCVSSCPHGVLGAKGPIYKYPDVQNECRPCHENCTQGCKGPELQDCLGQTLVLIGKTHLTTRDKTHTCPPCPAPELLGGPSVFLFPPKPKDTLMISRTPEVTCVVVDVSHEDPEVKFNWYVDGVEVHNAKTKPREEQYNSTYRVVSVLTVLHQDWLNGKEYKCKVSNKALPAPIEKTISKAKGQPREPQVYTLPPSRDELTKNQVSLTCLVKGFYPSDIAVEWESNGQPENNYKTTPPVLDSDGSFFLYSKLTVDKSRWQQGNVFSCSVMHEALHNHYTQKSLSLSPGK
Protocol: (§1) ¹²⁵I-HRG Binding Assay. Binding assays were performed in Nunc breakapart strip wells. Plates were coated at 4° C. overnight with 100 μl of 5 μg/ml goat-anti-human antibody (Boehringer Mannheim) in 50 mM carbonate buffer (pH 9.6). Plates were rinsed twice with wash buffer (PBS/0.05% Tween-20™) and blocked with 100 μl 1% BSA/PBS for 30 min. Buffer was removed and each well was incubated with 15 ng IgG fusion protein in 1% BSA/PBS under vigorous shaking for 1.5 hours. Plates were rinsed three times with wash buffer and competitive binding was carried out by adding various amounts of γ-HRG and ¹²⁵I-HRGβ1 under vigorous shaking. After incubation for 1.5–2 hours, wells were rinsed three times with wash buffer, drained and individual wells were counted using a 100 Series Iso Data γ-counter.
(§2) Bio/Technology 11:187–193 (1993)). Under those conditions trxγ-HRG accumulated in inclusion bodies from which the recombinant protein was isolated. Following purification, the protein was sulfitolyzed and then refolded by the addition of cysteine. The interaction of γ-HRG with the heregulin receptors ErbB3 and ErbB4 was examined. […] Cells were treated with various amounts of γ-HRG and tyrosine kinase activity was determined using immunoblotting with anti-phosphotyrosine antibody.

[5] = target: T2, ErbB4-immunoadhesin (ErbB4-IgG fusion, G640 ErbB4-(TR)-DKTH224 VH) (human, UniProt Q15303 26-651; P01857 104-330 = IgG part); experiment: competitive displacement of ^125I-HRGβ1(177-244) (0.23 nM) from ErbB4-IgG captured on goat-anti-human antibody coated wells
T2 construct: extracellular domain;domain: hinge domain of the immunoglobulin onward; also called H4-IgG; ErbB4 immunoadhesins
T2 sequence (Q15303 other isoform, or with tags, fused parts or gaps limits assumed): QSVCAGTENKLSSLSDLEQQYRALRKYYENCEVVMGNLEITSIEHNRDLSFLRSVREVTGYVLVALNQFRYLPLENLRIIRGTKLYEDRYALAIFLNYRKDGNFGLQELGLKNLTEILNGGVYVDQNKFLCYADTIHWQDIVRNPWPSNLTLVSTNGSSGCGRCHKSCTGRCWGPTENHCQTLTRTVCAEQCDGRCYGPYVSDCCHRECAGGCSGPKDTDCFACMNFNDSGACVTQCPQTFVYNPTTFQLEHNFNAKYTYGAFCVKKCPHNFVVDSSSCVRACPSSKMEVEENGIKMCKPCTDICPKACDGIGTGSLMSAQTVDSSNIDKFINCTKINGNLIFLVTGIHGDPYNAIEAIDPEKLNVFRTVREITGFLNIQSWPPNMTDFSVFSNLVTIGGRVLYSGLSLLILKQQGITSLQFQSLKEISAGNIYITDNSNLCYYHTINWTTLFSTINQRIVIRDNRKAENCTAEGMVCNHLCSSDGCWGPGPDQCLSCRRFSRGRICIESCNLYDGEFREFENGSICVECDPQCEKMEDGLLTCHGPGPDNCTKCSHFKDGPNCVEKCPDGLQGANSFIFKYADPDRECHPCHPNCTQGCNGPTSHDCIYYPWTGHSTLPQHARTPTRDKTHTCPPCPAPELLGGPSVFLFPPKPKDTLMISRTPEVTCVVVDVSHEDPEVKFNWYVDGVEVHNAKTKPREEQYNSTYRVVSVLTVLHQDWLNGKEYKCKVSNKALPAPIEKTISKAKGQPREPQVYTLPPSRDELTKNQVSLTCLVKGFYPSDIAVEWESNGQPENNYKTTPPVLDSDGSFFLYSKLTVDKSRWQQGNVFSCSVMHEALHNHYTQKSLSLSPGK
Protocol: as §1, §2

growth inhibition of SK-BR-3 cells (crystal violet staining) [1]: 66%
Molecule: anti-ErbB2 monoclonal antibody 4D5

EC50 of tyrosine phosphorylation in MCF7 cells [2]: 0.06 nM
Molecule: EGF-like domain of HRGβ1(177-244), expressed in E. coli (from UniProt Q02297 177-244) (ligand)

EC50 of tyrosine phosphorylation in MCF7 cells [3]: 0.06 nM | EC50 [4]: 19 nM | EC50 [5]: 13.3 nM
B1: trxγ-HRG (amino acids 455-768), N-terminal truncated γ-HRG thioredoxin fusion protein (ligand)
chain: QVFIDHPVHLKFNVSLGKAALVGIYGRKGLPPSHTQFDFVELLDGRRLLTQEARSLEGTPRQSRGTVPPSSHETGFIQYLDSGIWHLAFYNDGKESEVVSFLTTAIALPPRLKEMKSQESAAGSKLVLRCETSSEYSSLRFKWFKNGNELNRKNKPQNIKIQKKPGKSELRINKASLADSGEYMCKVISKLGNDSASANITIVESNEIITGMPASTEGAYVSSESPIRISVSTEGANTSSSTSTSTTGTSHLVKCAEKEKTFCVNGGECFMVKDLSNPSRYLCKCPNEFTGDRCQNYVMASFYSTSTPFLSLPE
notes: The results text calls it simply γ-HRG; also called recombinant γ-HRG; bacterial expressed truncated γ-HRG; not shown: N-terminal thioredoxin encoded by the pET-32a TRX fusion vector (Novagen); vector-encoded residues of pET32a between thioredoxin and the BamHI insertion site are not described

— patent publication US6916624 (Genentech, dated 2005)
